In paper PMC4301630, “Dynamic Growth and Shrinkage Govern the pH Dependence of RecA Filament Stability” (PLoS ONE, 2015):

Target: the molecule itself
Assay: single-molecule FRET (Cy3 and Cy5 on the DNA, TIRF microscopy); partial duplex DNA with a 60 nt 3' single-stranded overhang immobilised on a PEG-coated quartz slide; dyes 10 nt apart at the 5' side of the overhang report monomers joining and leaving the 5' end of the RecA filament; 1 uM RecA (0.5 uM RecAΔC17), 1 mM ATP, 10 mM Mg(OAc)2, 100 mM NaOAc, 10 mM Tris-OAc, Mes or Mops, pH 6.0 to 8.0, room temperature; …

B1: RecA protein (wild type) (natural protein, UniProt P0A7G6 1-353, looked up)
chain: MAIDENKQKALAAALGQIEKQFGKGSIMRLGEDRSMDVETISTGSLSLDIALGAGGLPMGRIVEIYGPESSGKTTLTLQVIAAAQREGKTCAFIDAEHALDPIYARKLGVDIDNLLCSQPDTGEQALEICDALARSGAVDVIVVDSVAALTPKAEIEGEIGDSHMGLAARMMSQAMRKLAGNLKQSNTLLIFINQIRMKIGVMFGNPETTTGGNALKFYASVRLDIRRIGAVKEGENVVGSETRVKVVKNKIAAPFKQAEFQILYGEGINFYGELVDLGVKEKLIEKAGAWYSYKGEKIGQGKANATAWLKDNPETAKEIEKKVRELLLSNPNSTPDFSVDDSEGVAETNEDF
notes: RecA protein, wild type, bought from New England Biolabs; Forms helical filaments of many monomers on single-stranded DNA with ATP or ATPγS; the number of copies in the filament is not fixed; also called wild type RecA; source: bought: New England Biolabs, used without further purification
binding result: binds
